Experimental findings from paper PMC4510711 are described below.

Data set [1] deals with T1, RC3H1-N2 (RING+ROQ+CCCH Zn finger) (Homo sapiens, UniProt Q5TC82 2-452).
T1 sequence: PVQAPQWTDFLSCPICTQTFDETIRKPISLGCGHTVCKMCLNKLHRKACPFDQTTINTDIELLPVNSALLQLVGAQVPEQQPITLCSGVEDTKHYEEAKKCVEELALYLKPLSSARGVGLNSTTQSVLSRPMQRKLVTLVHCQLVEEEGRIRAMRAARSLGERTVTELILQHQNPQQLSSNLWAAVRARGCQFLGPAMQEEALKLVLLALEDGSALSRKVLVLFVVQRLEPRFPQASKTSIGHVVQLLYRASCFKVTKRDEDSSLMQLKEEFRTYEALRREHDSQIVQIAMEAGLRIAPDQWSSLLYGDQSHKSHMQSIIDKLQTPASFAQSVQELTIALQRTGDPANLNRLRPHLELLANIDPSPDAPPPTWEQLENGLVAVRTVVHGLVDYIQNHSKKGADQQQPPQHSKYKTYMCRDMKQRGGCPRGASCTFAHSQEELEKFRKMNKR
The data set is described as follows: EMSA; higher affinity than the 21-nt hairpin; EMSA: 20 mM Tris-HCl pH 7.5, 50 mM KCl, 5 mM MgCl2, 20 uM ZnSO4, 10% glycerol, 2 mM DTT, 0.05 mg/ml BSA, 5 ug/ml heparin; 50 fmol RNA in 20 ul, room temperature.

Data set [2] has as its target T1, RC3H1-N2 (RING+ROQ+CCCH Zn finger). The data set is described as follows: EMSA; virtually unaffected vs WT; EMSA: 20 mM Tris-HCl pH 7.5, 50 mM KCl, 5 mM MgCl2, 20 uM ZnSO4, 10% glycerol, 2 mM DTT, 0.05 mg/ml BSA, 5 ug/ml heparin; 50 fmol RNA in 20 ul, room temperature.
The target is the same in data set [3]. The data set is described as follows: EMSA; complex formation seemed independent of the Zn finger; EMSA: 20 mM Tris-HCl pH 7.5, 50 mM KCl, 5 mM MgCl2, 20 uM ZnSO4, 10% glycerol, 2 mM DTT, 0.05 mg/ml BSA, 5 ug/ml heparin; 50 fmol RNA in 20 ul, room temperature.
The target of data set [4] is T2, RC3H1-N1 (RING+ROQ) (Homo sapiens, UniProt Q5TC82 2-399).
T2 sequence: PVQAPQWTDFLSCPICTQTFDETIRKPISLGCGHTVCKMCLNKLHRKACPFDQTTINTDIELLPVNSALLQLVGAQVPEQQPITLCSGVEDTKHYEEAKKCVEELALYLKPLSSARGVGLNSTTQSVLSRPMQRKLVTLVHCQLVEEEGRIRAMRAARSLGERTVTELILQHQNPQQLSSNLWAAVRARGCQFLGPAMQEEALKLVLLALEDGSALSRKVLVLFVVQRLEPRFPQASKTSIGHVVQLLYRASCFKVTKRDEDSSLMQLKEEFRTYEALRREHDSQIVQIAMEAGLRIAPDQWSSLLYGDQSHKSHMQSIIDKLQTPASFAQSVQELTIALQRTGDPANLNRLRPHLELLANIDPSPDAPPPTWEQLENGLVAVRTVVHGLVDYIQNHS
The data set is described as follows: EMSA; EMSA: 20 mM Tris-HCl pH 7.5, 50 mM KCl, 5 mM MgCl2, 20 uM ZnSO4, 10% glycerol, 2 mM DTT, 0.05 mg/ml BSA, 5 ug/ml heparin; 50 fmol RNA in 20 ul, room temperature.

Data set [5] deals with T1, RC3H1-N2 (RING+ROQ+CCCH Zn finger). Described as above.

In the case of AUAUAUAAUAUACCCUUACAUUAUGUAUGAGGGAUUU (structured_RNA) [A20 (37 nt) ARE-stem-loop], the binding result in data set [1] is “binds”. As to CCCUUACAUAAUGUAUGAGGG (structured_RNA) [Mut1 (21 nt)], in data set [2], the binding result was “binds”.

Take AUUUCUGUGAAAU (structured_RNA) [ICOS (13 nt) CDE-like stem-loop]: the binding result in data set [3] and in data set [4] was “binds” each time. As for CCUCCCCCCCUGCCCCCCAGC (ssRNA) [Mut3 (21 nt) control], the binding result in data set [5] is “no binding”.

Consider CCCUUACAUUAUGUAUGAGGG (structured_RNA) [A20 (21 nt) stem-loop WT], for which the binding result in data set [5] is “binds”.
